Usually stoichiometry N stands for the number of molecules, sites or subunits per partner or assembly.

Holding throughout (experiment): negative-stain EM
Assay [1] concerns the target H5/1 GCN4 (IN05 head, PR8 stalk, GCN4-trimerized) (influenza A virus A/Puerto Rico/8/34/Mount Sinai(H1N1) | influenza A virus A/Indonesia/5/2005(H5N1)).
For assay [2], the target named is H2/1 GCN4 (SG57 head, PR8 stalk, GCN4-trimerized) (influenza A virus A/Puerto Rico/8/34/Mount Sinai(H1N1) | influenza A virus A/Singapore/1/1957(H2N2)).
For assay [3], the target named is H1 GCN4 (NL09 HA, GCN4-trimerized) (influenza A virus A/Netherlands/602/2009(H1N1)).
The target in assay [4] is H1/1 GCN4 (NL09 head, PR8 stalk, GCN4-trimerized) (influenza A virus A/Puerto Rico/8/34/Mount Sinai(H1N1) | influenza A virus A/Netherlands/602/2009(H1N1)).

As for CR9114 Fab, the stoichiometry N (Fabs per trimer) in assay [1], in assay [2], in assay [3] and in assay [4] was 3 each time.

With “H1/1 GCN4 (NL09 head, PR8 stalk, GCN4-trimerized) (domain or fragment)”, the stoichiometry N in assay [4] amounted to 3.
